This passage reports Kd results from PMC13384500, “RNA selectively modulates activity of virulent amyloid PSMα3 and host-defense LL-37 via phase separation and aggregation dynamics”.

Series [1] deals with T1, PSMα3 (Staphylococcus aureus, UniProt P0C805).
T1 chain: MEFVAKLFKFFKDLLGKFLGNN
Description: EMSA; apparent Kd, Hill fit with n > 1; 40 nM RNA. The note with it: tags: none (unlabeled).

The target in series [2] is T1, PSMα3. Description: EMSA; apparent Kd, Hill fit with n > 1; 40 nM RNA; weaker than Poly(AU). The note with it: tags: none (unlabeled). (In EMSA bound probe runs differently from free probe, usually more slowly.)

B1: Poly(AU) RNA (30-nt oligoA/oligoU) (dsRNA)
RNA 1: AAAAAAAAAAAAAAAAAAAAAAAAAAAAAA
RNA 2: UUUUUUUUUUUUUUUUUUUUUUUUUUUUUU
As for B1, the Kd in the series with PSMα3 [1] was 61.8 ± 1.6 µM.

For the molecule AAAAAAAAAAAAAAAAAAAAAAAAAAAAAA (ssRNA) [Poly(A) RNA (30-nt oligoA)], in the series with PSMα3 [2], the Kd worked out at 94.5 ± 5.4 µM.
